Data on four molecules can be found in patent publication US20050176118A1, “Esterases with lipase activity” (priority 2002, published 2005).

For series [1] the following is noted: cited from earlier work.
Series [2] can be described thus: Fluorometric determination of lipase activity. To be noted: 4-MU-palmitate 10^−4M; ± standard error of duplicate assays. In kind it is biochemical. The text has this:
A fluorogenic assay was used to measure lipase activity of insect esterases or lipases, and mutants thereof. The fluorogenic substrate provides rapid reproducible methods for measuring enzymatic activity. Fatty acid esters (acylated) of 4-methylumbelliferone fluorophors are used as substrates for the identification of lipase activity. This assay uses the fluorophore 4-methylumbelliferyl palmitate (4-MU-palmitate) (structure provided below) and is a modification of the fluorometric esterase titration assay of Devonshire et al. (2002) and the method of Hamid et al. (1994) used for the rapid characterisation and identification of Mycobacteria. [drawing 4]
4-MU-palmitate is hydrolysed by a lipase to release the fluorescent 4-methylumbelliferone (4-MU), which can be measured by a fluorimeter.
A standard curve for 4-MU is prepared in each plate alongside the titrations. 25 μL 10^−2M dMU stock (19.8 mg/10 ml in 100% ethanol) was diluted with 2.475 ml (3×825 μl) ethanol to give a 10^−4M solution. This 10^−4M solution was used to prepare a standard curve from 0 to 1.0 μM in 0.1M phosphate buffer pH 7.0 (plus 0.05% or 0.5% ultrapure Triton X-100 (TX100) if present in cell extracts). This was done by dispensing 25 μl, 20 μl, 15 μl, 10 μl, 5 μl, 0 μl (plus ethanol to 25 μl) into tubes and adding 2.475 ml phosphate buffer (or phosphate buffer containing TX100 if required), then adding 100 μl per well. This gives 0.2, 0.4, 0.6, 0.8 and 1.0 uM in 0.25% TX100.
The samples were read on a Fluorostar fluorometer (BMG LabTechnologies) alongside the following titration reactions using the basic settings: excitation—355 nm, emission—460 nm, gain—zero, 10 cycles of 180 secs with shaking before each cycle.
For the assay, 20 μl of 5×10^−4 4-MU-palmitate (in 100% acetone) was to the wells that require substrate (II & III as defined in Table 4 below) and air dried. […] Cell extracts should be added immediately before readings start.
Corrected fluorescence (Fcorrected) was calculated by the following equations. […]

The nature of series [3]: Permethrin hydrolysis, radiometric partition assay (acid-labelled substrate). As to conditions: sequential incubation of trans permethrin with E3WT and E4 from OP resistant aphid homogenates. The class given is biochemical.
Protocol: Expressed enzymes were tested for permethrin hydrolytic activity using a radiometric partition assay for acid-labelled compounds, or a TLC based assay for those labelled in the alcohol moiety (Devonshire and Moores, 1982). […] The power of the analyses was increased by separating permethrin into its cis and trans isomers.
Preparative thin layer chromatography (TLC) on silica was used to separate the isomers into two enantiomer pairs: 1S/1R cis and 1S/1R trans. […] Enzyme preparations could then be assayed for the hydrolysis of each enantiomer pair.
This assay (Devonshire and Moores, 1982) is used for permethrin isomers. It relies on incubating the expressed esterase with radiolabelled substrate and then measuring the radioactive cyclopropanecarboxylate anion in the aqueous phase after extracting the unchanged substrate into organic solvent. Based on previous experience, the best extraction protocol utilises a 2:1 (by volume) mixture of methanol and chloroform. […] Subsequent addition of an excess of chloroform and buffer exceeds the capacity of the methanol to hold the phases together, so that the organic phase can be removed and the product measured in the aqueous phase. […]
Series [4] can be described thus: Esterase activity with α-naphthyl acetate. In kind it is biochemical. As to conditions: substrate α-naphthyl acetate; for Km: read-out: α-NA activity Km.
Series [5] is described as follows: Hydrolysis of Type II pyrethroid, chloroform-methanol extraction assay. In kind it is biochemical. Also noted: key: —: Not substantially different from values obtained using control cell extracts. The protocol:
Since the TLC assay is more protracted than the chloroform-methanol extraction procedure, the latter (as described above for acid-labelled pyrethroids) was adopted to measure the 3-phenoxbenzoate anion produced from these substrates.
For all assays the molar amount of product formed was calculated from the known specific activity of the radiolabelled substrate. […] Assays at concentrations greater than 0.5 μM, which approximates the published aqueous solubility of permethrin, gave erratic results so precluding the measurement of Km and kcat. […] Assay conditions were therefore adjusted to measure the hydrolysis of the more-readily hydrolysed enantiomer in each pair. […] The same considerations about substrate solubility and proportionality of response to its concentration were assumed for all enzymes and substrates.
The specificity constant (ie kcat/Km) can therefore be calculated from the above equation using the initial hydrolysis rate (pmol/min, calculated from the known specific activity of the radiolabelled substrate) and the concentrations of substrate and enzyme in the assay. The diffusion-limited maximum value for a specificity constant is 10^8-10^9 M^−1sec^−1 (Stryer, 1981).

In the case of `CC1(C)C(C=C(Cl)Cl)C1C(=O)OCc1cccc(Oc2ccccc2)c1` (stereo not drawn) [permethrin], the “published solubility in aqueous solution” value in series [1] is 0.5 µM.

B1: MpE4WT: wild-type Myzus persicae E4 α-carboxylesterase (SEQ ID NO:3) (protein, listed as Myzus persicae)
chain: MKNTCGILLNLFLFIGCFLTCSASNTPKVQVHSGEIAGGFEYTYNGRKIYSFLGIPYASPPVQNNRFKEPQPVQPWLGVWNATVPGSACLGIEFGSGSKIIGQEDCLFLNVYTPKLPQENSAGDLMNVIVHIHGGGYYFGEGILYGPHYLLDNNDFVYVSINYRLGVLGFASTGDGVLTGNNGLKDQVAALKWIQQNIVAFGGDPNSVTITGMSAGASSVHNHLISPMSKGLFNRAIIQSGSAFCHWSTAENVAQKTKYIANLMGCPTNNSVEIVECLRSRPAKAIAKSYLNFMPWRNFPFTPFGPTVEVAGYEKFLPDIPEKLVPHDIPVLISIAQDEGLIFSTFLGLENGFNELNNNWNEHLPHILDYNYTISNENLRFKTAQDIKEFYFGDKPISKETKSNLSKMISDRSFGYGTSKAAQHIAAKNTAPVYFYEFGYSGNYSYVAFFDPKSYSRGSSPTHGDETSYVLKMDGFYVYDNEEDRKMIKTMVNIWATFIKSGVPDTENSEIWLPVSKNLADPFRFTKITQQQTFEAREQSTTGIMNFGVAYH
As for B1, the 4-MU-palmitate activity in series [2] is 0.1051 ± 0.0033 moles 4MU produced per sec per mole of enzyme. In series [3], the “enantiomer preference for trans permethrin” value is reported as “preference for the 1S trans enantiomer”. In series [4], the α-NA activity kcat was found to be 3 s⁻¹ and the Km is 28 µM.

B2: EST23WT: wild-type Drosophila melanogaster EST23 α-carboxylesterase (SEQ ID NO:2) (protein)
chain: MNKNLGFVERLRGRLKTIEHKVQQYRQSTNETVVADTEYGQVRGIKRLSLYDVPYFSFEGIPYAQPPVGELRFKAPQRPIPWEGVRDCSQPKDKAVQVQFVFDKVEGSEDCLYLNVYTNNVKPDKARPVMVWIHGGGFIIGEANREWYGPDYFMKEDVVLVTIQYRLGALGFMSLKSPELNVPGNAGLKDQVLALKWIKNNCASFGGDPNCITVFGESAGGASTHYMMLTDQTQGLFHRGILQSGSAICPWAYNGDITHNPYRIAKLVGYKGEDNDKDVLEFLQNVKAKDLIRVEENVLTLEERMNKIMFRFGPSLEPFSTPECVISKPPKEMMKTAWSNSIPMFIGNTSYEGLLWVPEVKLMPQVLQQLDAGTPFIPKELLATEPSKEKLDSWSAQIRDVHRTGSESTPDNYMDLCSIYYFVFPALRVVHSRHAYAAGAPVYFYRYDFDSEELIFPYRIMRMGRGVKGVSHADDLSYQFSSLLARRLPKESREYRNIERTVGIWTQFAATGNPYSEKINGMDTLTIDPVRKSDEVIKCLNISDDLKFIDLPEWPKLKVWESLYDDNKDLLF
modifications: Drosophila melanogaster
As for B2, the 4-MU-palmitate activity in series [2] was 0.0677 ± 0.0032 moles 4MU produced per sec per mole of enzyme. Also, in series [4], the α-NA activity kcat came to 276 s⁻¹ and the Km was 82 µM. In series [5], the “Specificity Constant (kcat/Km) 1R cis αR deltamethrin” value is recorded as “—” and the “Specificity Constant (kcat/Km) 1R cis αS deltamethrin” value is given as “—”.

B3: E3WT: wild-type Lucilia cuprina E3 α-carboxylesterase (SEQ ID NO:1), baculovirus expressed (protein, listed as Lucilia cuprina)
chain: MNFNVSLMEKLKWKIKCIENKFLNYRLTTNETVVAETEYGKVKGVKRLTVYDDSYYSFEGIPYAQPPVGELRFKAPQRPTPWDGVRDCCNHKDKSVQVDFITGKVCGSEDCLYLSVYTNNLNPETKRPVLVYIHGGGFIIGENHRDMYGPDYFIKKDVVLINIQYRLGALGFLSLNSEDLNVPGNAGLKDQVMALRWIKNNCANFGGNPDNITVFGESAGAASTHYMMLTEQTRGLFHRGILMSGNAICPWANTQCQHRAFTLAKLAGYKGEDNDKDVLEFLMKAKPQDLIKLEEKVLTLEERTNKVMFPFGPTVEPYQTADCVLPKHPREMVKTAWGNSIPTMMGNTSYEGLFFTSILKQMPMLVKELETCVNFVPSELADAERTAPETLEMGAKIKKAHVTGETPTADNFMDLCSHIYFWFPMHRLLQLRFNHTSGTPVYLYRFDFDSEDLINPYRIMRSGRGVKGVSHADELTYFFWNQLAKRMPKESREYKTIERMTGIWIQFATTGNPYSNEIEGMENVSWDPIKKSDEVYKCLNISDELKMIDVPEMDKIKQWESMFEKHRDLF
For the molecule B3, in series [2], the 4-MU-palmitate activity is reported as 0.0298 ± 0.0006^1 moles 4MU produced per sec per mole of enzyme. Moreover, in series [3], the “enantiomer preference for trans permethrin” value was “preference for the 1S trans enantiomer”. In addition, in series [4], the α-NA activity kcat was found to be 248 s⁻¹ and the Km was 71 µM. Also, in series [5], the “Specificity Constant (kcat/Km) 1R cis αR deltamethrin” value was “—”, the “Specificity Constant (kcat/Km) 1R cis αS deltamethrin” value is given as “—”, the “Specificity Constant (kcat/Km) 1S cis αR deltamethrin” value was “—^1” and the “Specificity Constant (kcat/Km) 1S cis αS deltamethrin” value is on record as “—”.
